Results taken from US20040043378A1 (published 2004).

Columns and labels:
[1] = molecular target: T1, P/CAF (p300/CBP-associated factor), HA-tagged, expressed in cells (human, UniProt Q92831 1-832); experiment: interaction in cells, western blot (FLAG-Tat, HA-P/CAF)
T1 construct: also called HA-P/CAF

[2] = molecular target: T2, Tat AcK28 peptide TNCYCK-AcK-CCFH (SEQ ID NO:58) (Human Immunodeficiency Virus type 1); experiment: NMR 2D 1H-15N HSQC titration; 'binds weakly'
T2 construct: Synthetic peptide

[3] = molecular target: Tat AcK50 peptide SYGR-AcK-[…] (SEQ ID NO:50) (Human Immunodeficiency Virus type 1); experiment: NMR 2D 1H-15N HSQC titration; 'interacts strongly'

B1: Tat K50R/K51R mutant protein, FLAG-tagged, expressed in cells (other)
chain: MEPVDPRLEPWKHPGSQPKTASNNCYCKRCCLHCQVCFTKKGLGISYGRRRRRQRRRAPQDSKTHQVSLSKQPASQPRGDPTGPKESKKKVERETETDPED
notes: also called Tat-RR; Tat double mutant containing K50R/K51R
B1: no binding [1].

B2: bromodomain of P/CAF (residues 719-832 of SEQ ID NO:2) (other)
chain: SKEPRDPDQLYSTLKSILQQVKSHQSAWPFMEPVKRTEAPGYYEVIRFPMDLKTMSERLKNRYYVSKKLFMADLQRVFTNCKEYNAAESEYYKCANILEKFFFSKIKEAGLIDK
notes: also called P/CAF bromodomain; the bromodomain
B2 showed a Kd [2] of under 300 µM and a Kd [3] of about 20 µM.
